Assay results published in the supplement of paper PMC6379048.

Columns and labels:
Assay in all cases: Kd (EC50 corrected by depletion factor)
[1] = target: T1, SYNCRIP (UniProt O60506)
T1 sequence: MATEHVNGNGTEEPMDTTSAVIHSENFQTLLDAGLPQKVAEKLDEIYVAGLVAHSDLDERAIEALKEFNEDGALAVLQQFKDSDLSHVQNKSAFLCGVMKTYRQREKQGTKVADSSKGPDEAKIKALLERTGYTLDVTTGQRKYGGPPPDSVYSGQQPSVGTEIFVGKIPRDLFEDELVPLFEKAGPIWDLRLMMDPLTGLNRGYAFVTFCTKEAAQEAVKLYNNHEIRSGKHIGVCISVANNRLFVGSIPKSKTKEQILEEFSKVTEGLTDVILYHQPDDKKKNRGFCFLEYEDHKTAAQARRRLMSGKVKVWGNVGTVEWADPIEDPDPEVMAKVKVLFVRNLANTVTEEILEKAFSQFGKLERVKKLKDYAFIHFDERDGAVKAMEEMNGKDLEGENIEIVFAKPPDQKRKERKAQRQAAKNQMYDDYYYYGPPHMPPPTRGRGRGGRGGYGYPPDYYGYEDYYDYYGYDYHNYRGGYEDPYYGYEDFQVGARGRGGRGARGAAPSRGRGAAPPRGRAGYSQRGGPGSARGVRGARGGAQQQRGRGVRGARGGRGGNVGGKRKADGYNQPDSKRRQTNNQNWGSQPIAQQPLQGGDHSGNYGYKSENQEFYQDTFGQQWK
How it was run: (§1)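 Over three biological replicates and two independent experiments, proteins captured on NHS-Sepharose beads carrying 5′-amino-C6 RNA oligos were quantified by label-free LC-MS/MS and normalised to the control. Capture lasted 30 min at 4°C and followed a 1 h pre-incubation at 4°C of HEK293-FT lysate (2.5 mg protein/well) with the same oligos in free form (0 nM to 30 μM). EC50 was taken from a four-parameter log-logistic fit, and Kd was EC50 corrected by a protein-dependent depletion factor.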

[2] = target: T2, ZGPAT (UniProt Q8N5A5)
T2 sequence: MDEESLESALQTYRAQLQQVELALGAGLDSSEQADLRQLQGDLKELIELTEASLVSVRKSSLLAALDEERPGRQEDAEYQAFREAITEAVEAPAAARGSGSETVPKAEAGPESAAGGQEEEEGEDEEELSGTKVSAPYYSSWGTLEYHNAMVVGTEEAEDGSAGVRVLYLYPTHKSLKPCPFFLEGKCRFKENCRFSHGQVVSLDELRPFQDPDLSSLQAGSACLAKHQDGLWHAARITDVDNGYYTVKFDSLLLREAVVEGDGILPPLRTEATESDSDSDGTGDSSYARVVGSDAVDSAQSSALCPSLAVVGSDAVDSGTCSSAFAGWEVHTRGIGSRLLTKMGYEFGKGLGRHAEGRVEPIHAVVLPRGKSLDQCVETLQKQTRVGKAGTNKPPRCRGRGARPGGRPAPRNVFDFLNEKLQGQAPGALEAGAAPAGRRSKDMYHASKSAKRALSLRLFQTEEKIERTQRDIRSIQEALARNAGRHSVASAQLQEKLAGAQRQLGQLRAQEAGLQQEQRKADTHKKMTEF
How it was run: as §1

[3] = target: T3, SRSF4 (UniProt Q08170)
T3 sequence: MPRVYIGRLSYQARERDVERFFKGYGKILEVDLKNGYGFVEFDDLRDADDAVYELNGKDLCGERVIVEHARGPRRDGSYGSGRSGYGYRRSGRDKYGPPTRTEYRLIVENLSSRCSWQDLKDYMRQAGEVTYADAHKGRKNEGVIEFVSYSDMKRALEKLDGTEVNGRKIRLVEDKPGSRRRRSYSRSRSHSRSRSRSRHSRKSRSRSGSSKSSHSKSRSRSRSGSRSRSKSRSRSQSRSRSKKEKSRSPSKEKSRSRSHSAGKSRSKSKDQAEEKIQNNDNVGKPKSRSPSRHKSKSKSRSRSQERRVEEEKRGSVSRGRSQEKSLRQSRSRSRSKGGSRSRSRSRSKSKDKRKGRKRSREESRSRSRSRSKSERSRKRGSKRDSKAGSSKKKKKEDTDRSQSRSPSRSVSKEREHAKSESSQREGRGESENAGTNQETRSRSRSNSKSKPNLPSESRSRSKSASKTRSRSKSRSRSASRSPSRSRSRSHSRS
How it was run: as §1

[4] = target: RPS18 (UniProt P62269)
How it was run: as §1

[5] = target: RPS25 (UniProt P62851)
How it was run: as §1

[6] = target: T4, DDX21 (UniProt Q9NR30)
T4 sequence: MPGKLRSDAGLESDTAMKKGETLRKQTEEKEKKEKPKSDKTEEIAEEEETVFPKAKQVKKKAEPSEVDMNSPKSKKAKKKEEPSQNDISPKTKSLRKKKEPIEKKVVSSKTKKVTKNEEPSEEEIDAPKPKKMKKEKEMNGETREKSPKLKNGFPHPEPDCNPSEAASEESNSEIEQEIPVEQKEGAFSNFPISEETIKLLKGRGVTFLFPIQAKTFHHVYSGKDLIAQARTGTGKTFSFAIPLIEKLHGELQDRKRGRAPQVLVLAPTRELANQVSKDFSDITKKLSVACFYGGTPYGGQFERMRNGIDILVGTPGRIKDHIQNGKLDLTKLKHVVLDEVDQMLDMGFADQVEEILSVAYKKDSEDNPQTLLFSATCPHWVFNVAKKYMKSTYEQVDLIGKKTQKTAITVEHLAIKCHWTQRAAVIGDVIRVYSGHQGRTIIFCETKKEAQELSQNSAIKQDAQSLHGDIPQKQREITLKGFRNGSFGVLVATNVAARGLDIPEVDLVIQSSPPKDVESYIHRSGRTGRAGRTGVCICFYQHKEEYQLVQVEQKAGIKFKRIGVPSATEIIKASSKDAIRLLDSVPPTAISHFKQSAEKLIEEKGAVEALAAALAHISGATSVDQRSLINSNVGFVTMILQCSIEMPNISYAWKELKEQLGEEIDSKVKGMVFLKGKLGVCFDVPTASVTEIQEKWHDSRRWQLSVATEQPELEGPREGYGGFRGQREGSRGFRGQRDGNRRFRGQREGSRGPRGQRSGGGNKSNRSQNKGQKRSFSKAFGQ
How it was run: as §1

[7] = target: MRPL14 (UniProt Q6P1L8)
How it was run: as §1

[8] = target: TOE1 (UniProt Q96GM8)
How it was run: as §1

Sequence: AAUAAA
- Kd [1]: 252 nM
- Kd [2]: 4390 nM

Sequence: CUGUCCU
- Kd [3]: 312 nM
- Kd [4]: 42.6 nM
- Kd [5]: 25.2 nM
- Kd [6]: 44.3 nM
- Kd [7]: 53.5 nM

Sequence: UAUUUAU
- Kd [8]: 1020 nM
